Molecular target: GnRH-AIF chimeric protein
Assay: co-IP; anti-AIF antibody (ab32516) on Protein A/G beads; nuclear fractions of Colo205 cells treated with GnRH-AIF (1 µM) or PBS for 24 h; overnight at 4 °C, washed with PBS; blots with anti-ENDOG and anti-AIFM1

fold increase of co-precipitated ENDOG, cells treated with GnRH-AIF against PBS control: 1.6 fold
B1: endonuclease G (enzyme)
chain: AELPPVPGGPRGPGELAKYGLPGLAQLKSRESYVLCYDPRTRGALWVVEQLRPERLRGDGDRRECDFREDDSVHAYHRATNADYRGSGFDRGHLAAAANHRWSQKAMDDTFYLSNVAPQVPHLNQNAWNNLEKYSRSLTRSYQNVYVCTGPLFLPRTEADGKSYVKYQVIGKNHVAVPTHFFKVLILEAAGGQIELRTYVMPNAPVDEAIPLERFLVPIESIERASGLLFVPNILARAGSLKAITAGSK
